For assay [1], the target named is Asp1/2/3 complex (without a tag) (Streptococcus gordonii) (UniProt Q9AET8). The experiment in a line: light scattering.
For assay [2], the target named is Asp1, untagged, as co-expressed with Asp3 and tagged Asp2 (Streptococcus gordonii) (UniProt Q9AET8). The assay can be described thus: light scattering.

UniProt Q9AET8, sequence (Q9AET8 whole entry): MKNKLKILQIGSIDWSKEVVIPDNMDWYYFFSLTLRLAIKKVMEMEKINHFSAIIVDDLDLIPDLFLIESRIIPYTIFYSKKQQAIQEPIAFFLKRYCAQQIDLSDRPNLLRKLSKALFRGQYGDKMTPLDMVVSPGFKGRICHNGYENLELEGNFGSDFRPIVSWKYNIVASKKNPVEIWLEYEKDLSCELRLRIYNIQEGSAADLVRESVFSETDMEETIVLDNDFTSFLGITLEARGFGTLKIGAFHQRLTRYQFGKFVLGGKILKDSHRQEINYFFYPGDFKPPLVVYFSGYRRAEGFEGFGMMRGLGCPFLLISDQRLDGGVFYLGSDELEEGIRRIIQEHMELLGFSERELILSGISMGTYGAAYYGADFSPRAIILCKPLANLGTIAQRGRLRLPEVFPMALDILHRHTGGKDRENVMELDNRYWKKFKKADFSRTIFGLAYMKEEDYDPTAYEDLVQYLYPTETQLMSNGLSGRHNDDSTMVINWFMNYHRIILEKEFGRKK

Turning to “Asp1/2/3 complex (without a tag) (from UniProt Q9AET8 1-510)”, in assay [1], the stoichiometry N (as a rule, the number of molecules, sites or subunits per partner or assembly) was found to be 2.
Take “Asp3 (accessory Sec protein 3) (natural protein)”: in assay [2], the stoichiometry N came to 1.

These data come from paper doi:10.1101/219105.
